Experimental data: publication PMC11062913, “Structural basis of Integrator-dependent RNA polymerase II termination” (Nature, 2024)

Molecular target: T1, Integrator subunit INTS11(E203Q) (human, UniProt Q5TA45 1-600, E203Q)
T1 construct: INTS11, human; endonuclease subunit of the Integrator cleavage module; E203Q mutant with reduced catalytic activity used in all complexes for cryo-EM and XL-MS; Stood in the assays as a subunit of the Integrator–PP2A complex; also called INTS11(E203Q) mutant
Assay: cross-linking; XL-MS of the PEC–Integrator–PP2A–SOSS complex (mixed population of pre- and post-termination complexes): pooled glycerol-gradient peak fractions, 3 mM BS3, 30 min, 30 °C
Settings: both partners purified

B1: NABP2 (natural protein, human, UniProt Q9BQ15-1 1-211, looked up)
chain: MTTETFVKDIKPGLKNLNLIFIVLETGRVTKTKDGHEVRTCKVADKTGSINISVWDDVGNLIQPGDIIRLTKGYASVFKGCLTLYTGRGGDLQKIGEFCMVYSEVPNFSEPNPEYSTQQAPNKAVQNDSNPSASQPTTGPSAASPASENQNGNGLSAPPGPGGGPHPPHTPSHPPSTRITRSQPNHTPAGPPGPSSNPVSNGKETRRSSKR
notes: Treated with lambda protein phosphatase during purification; also called SOSS factor NABP2
**Q.** Does B1 bind?
**A.** Result: binds
